Substitutions are numbered along the chain they refer to. Where “and” joins values, the source holds several entries; their conditions need not be identical. Identical values can stand only once.
T1: human interleukin-1 receptor on cells (MRC-5 human embryonic lung fibroblasts; human blood cells) (human, UniProt P14778 18-569)
T1 sequence (looked up): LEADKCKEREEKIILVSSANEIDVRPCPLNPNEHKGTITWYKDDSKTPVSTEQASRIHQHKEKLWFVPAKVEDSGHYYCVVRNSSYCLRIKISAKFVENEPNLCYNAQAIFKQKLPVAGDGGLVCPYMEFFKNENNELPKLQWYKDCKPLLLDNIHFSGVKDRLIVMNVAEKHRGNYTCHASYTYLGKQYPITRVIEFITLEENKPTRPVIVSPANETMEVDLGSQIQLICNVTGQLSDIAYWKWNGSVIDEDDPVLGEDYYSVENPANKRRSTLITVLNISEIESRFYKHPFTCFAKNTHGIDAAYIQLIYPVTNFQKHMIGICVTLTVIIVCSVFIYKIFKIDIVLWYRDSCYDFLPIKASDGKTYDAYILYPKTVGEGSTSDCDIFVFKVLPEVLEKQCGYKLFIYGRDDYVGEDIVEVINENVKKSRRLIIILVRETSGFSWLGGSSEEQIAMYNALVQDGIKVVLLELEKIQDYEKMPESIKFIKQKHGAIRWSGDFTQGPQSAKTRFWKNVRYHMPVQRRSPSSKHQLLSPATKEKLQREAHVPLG

T2: recombinant soluble human type 1 IL-1 receptor (extracellular domain, glycosylated) (human, UniProt P14778 21-333, N-glycosylated (from SF9 insect cells); biotinylated in the ELISA of Examples 2 and 4c)
T2 construct: also called hIL-1R; rshIL-1R
T2 sequence: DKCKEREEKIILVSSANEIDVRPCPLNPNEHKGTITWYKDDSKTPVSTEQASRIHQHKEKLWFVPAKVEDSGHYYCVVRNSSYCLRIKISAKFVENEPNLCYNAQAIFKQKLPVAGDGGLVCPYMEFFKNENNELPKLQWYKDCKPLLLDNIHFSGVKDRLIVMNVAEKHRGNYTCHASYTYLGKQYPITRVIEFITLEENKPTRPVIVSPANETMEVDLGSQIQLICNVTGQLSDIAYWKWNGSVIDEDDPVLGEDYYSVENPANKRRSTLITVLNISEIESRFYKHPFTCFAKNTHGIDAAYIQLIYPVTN

B1: chimeric 2D8 (IgG1) (antibody)
heavy: not shown
light: DIVLTQAPVLAVSLEQRATISCKASQNVDNRGVSYVHWYQQKPRQQPKLLIYKGSNLAFGVPARFSGSGSRTDFTLTIDPVETDDFATYYCQQSKGHPDTFGAGTKLELKRTVAAPSVFIFPPSDEQLKSGTASVVCLLNNFYPREAKVQWKVDNALQSGNSQESVTEQDSKDSTYSLSSTLTLSKADYEKHKVYACEVTHQGLSSPVTKSFNRGEC
B2: chimeric 2D8 (IgG4) (antibody)
heavy: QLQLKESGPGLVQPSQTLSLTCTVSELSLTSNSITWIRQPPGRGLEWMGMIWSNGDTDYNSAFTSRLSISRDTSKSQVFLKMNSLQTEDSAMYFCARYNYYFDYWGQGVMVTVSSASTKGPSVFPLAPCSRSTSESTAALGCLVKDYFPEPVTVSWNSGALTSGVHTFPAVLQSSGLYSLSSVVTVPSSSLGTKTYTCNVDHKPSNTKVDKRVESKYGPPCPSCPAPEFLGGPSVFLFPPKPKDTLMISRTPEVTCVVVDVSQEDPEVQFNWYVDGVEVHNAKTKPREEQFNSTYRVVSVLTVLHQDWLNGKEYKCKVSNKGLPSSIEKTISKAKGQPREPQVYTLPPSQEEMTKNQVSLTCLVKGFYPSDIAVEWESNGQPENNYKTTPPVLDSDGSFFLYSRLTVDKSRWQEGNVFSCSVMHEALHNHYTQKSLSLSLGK
light: B1 light
B3: antibody 2D8 (rat monoclonal antibody against human interleukin-1 receptor, from hybridoma cell line MAK<h-IL-1RI>2D8, DSM ACC 2601) (antibody, V domains shown)
VH: QLQLKESGPGLVQPSQTLSLTCTVSELSLTSNSITWIRQPPGRGLEWMGMIWSNGDTDYNSAFTSRLSISRDTSKSQVFLKMNSLQTEDSAMYFCARYNYYFDYWGQGVMVTVSS
VL: DIVLTQAPVLAVSLEQRATISCKASQNVDNRGVSYVHWYQQKPRQQPKLLIYKGSNLAFGVPARFSGSGSRTDFTLTIDPVETDDFATYYCQQSKGHPDTFGAGTKLEL
B4: DEI5/4 (antibody, V domains shown)
VH: QLQLQESGPGLVKPSQTLSLTCTVSGLSLTSNSITWIRQPPGKGPEWMGMIWSNGDTDYSTSLKSRLTISKDTSKSQVVLTMTNMDPVDTATYYCARYNYYFDYWGQGTLVTVSS
VL: DIVLTQSPATLSLSPGERATLSCKASQNVDNRGVSYVHWYQQKPGQAPKLLIYKGSNLAFGVPARFSGSGSGTDFTLTISSLQPEDFATYYCQQSKGHPDTFGAGTKLELK
B5: HUM2/2 (antibody, V domains shown)
VH: QVQLQESGPGLVKPSETLSLTCTVSELSLTSNSITWIRQPPGKGLEWIGMIWSNGDTDYNSAFTSRVTISRDTSKNQFSLKLSSVTAADTAVYYCARYNYYFDYWGQGTLVTVSS
VL: B4 VL with D1E, K49R, G72R, Q83E, A104Q, L108V, L110I
notes: Humanized variant of 2D8
B6: DEI4/7 (antibody, V domains shown)
VH: QLQLQESGPGLVKPSQTLSLTCTVSGLSLTSNSITWIRQPPGKGPEWMGMIWSNGDTDYNSAFTSRFTISRDNSKNTLYLQMNSLKTEDTAVYYCARYNYYFDYWGQGTLVTVSS
VL: B4 VL with Y91F
B7: HUM2/3 (antibody, V domains shown)
VH: B5 VH
VL: B4 VL with D1E, L21I, A47Q, G72R, Q83E, A104Q, L108V, L110I
notes: also called combination of HUR HuVH v2 and HUR HuVK v3
B8: DEI1/8 (antibody, V domains shown)
VH: B6 VH with I37V, P40A, K43Q, P45L
VL: B4 VL with A64S, Y91F
B9: DEI4/5 (antibody, V domains shown)
VH: B6 VH
VL: B4 VL with L21I
notes: also called combination of HURDIVHv4 and HURDIVKv5
B10: DEI2/8 (antibody, V domains shown)
VH: B4 VH with I37V, P40A, K43Q, P45L
VL: B4 VL with A64S, Y91F
notes: also called combination of HURDIVHv2 and HURDIVKv8
B11: DEI5/5 (antibody, V domains shown)
VH: B4 VH
VL: B4 VL with L21I
notes: also called combination of HURDIVHv5 and HURDIVKv5
B12: DEI5/9 (antibody, V domains shown)
VH: B4 VH
VL: B4 VL with A64S
B13: DEI2/9 (antibody, V domains shown)
VH: B4 VH with I37V, P40A, K43Q, P45L
VL: B4 VL with A64S
notes: also called combination of HURDIVHv2 and HURDIVKv9
B14: DEI5/7 (antibody, V domains shown)
VH: B4 VH
VL: B4 VL with Y91F
B15: DEI4/9 (antibody, V domains shown)
VH: B6 VH
VL: B4 VL with A64S
B16: DEI2/4 (antibody, V domains shown)
VH: B4 VH with I37V, P40A, K43Q, P45L
VL: B4 VL
notes: also called combination of HURDIVHv2 and HURDIVKv4

What follows are binders tested against T1, human interleukin-1 receptor on cells … (assay: cell-based or functional assay).

IC 50 for the inhibition of IL-8 secretion (h-IL1β stimulated MRC-5 cells)	Binder
4.7 pM and 0.71 ng/ml	B1
5.1 pM and 0.77 ng/ml	B2
7.2 pM and 1.08 ng/ml	B3

Biological target: T1, human interleukin-1 receptor on cells …
Assay: cell-based or functional assay
Remark: another data set of the same source

Bioassay (IC50 in relation to 2D8), 1st experiment	Bioassay (IC50 in relation to 2D8), 2nd experiment	Bioassay (IC50 in relation to 2D8), Mean	Binder
3.1 relative to 2D8	1.9 relative to 2D8	2.5 relative to 2D8	B4
0.9 relative to 2D8	1 relative to 2D8	1 relative to 2D8	B5
3.4 relative to 2D8	3.5 relative to 2D8	3.5 relative to 2D8	B6
0.8 relative to 2D8	1.5 relative to 2D8	1.2 relative to 2D8	B7
3.2 relative to 2D8	0.7 relative to 2D8	2 relative to 2D8	B8
1.5 relative to 2D8	4.5 relative to 2D8	3 relative to 2D8	B9
3.3 relative to 2D8	1.4 relative to 2D8	2.4 relative to 2D8	B10
5.2 relative to 2D8	3.9 relative to 2D8	4.6 relative to 2D8	B11
1.6 relative to 2D8	2.8 relative to 2D8	2.2 relative to 2D8	B12
2.7 relative to 2D8	2.8 relative to 2D8	2.8 relative to 2D8	B13
3.4 relative to 2D8	1.2 relative to 2D8	2.3 relative to 2D8	B14
5.2 relative to 2D8	4.1 relative to 2D8	4.7 relative to 2D8	B15
2.5 relative to 2D8	2 relative to 2D8	2.3 relative to 2D8	B16
–	–	1 relative to 2D8	B3

Each binder was assayed against T2, recombinant soluble human type 1 IL-1 … (assay: ELISA on biotinylated human IL-1R on streptavidin plates).
Protocol: The relative immunactivity of the antibodies as compared to 2D8 antibody was determined by ELISA. A soluble biotinylated human IL-1R was coated at room temperature for one hour to 96-well-plates (precoated with streptavidin). After blocking with BSA the antibody was diluted and added to the wells and incubated at room temperature for two hours. The plates were washed three times and incubated with horse-radish-peroxidase (POD)-conjugated rabbit-anti-rat-IgG at room temperature for one hour. After further washing the amount of bound antibody was determined by addition of TM-Blue® ([…]) and measurement of the absorbance at 370 nm.

ELISA (absorbance at 370 nm in relation to 2D8), 1st experiment	ELISA (absorbance at 370 nm in relation to 2D8), 2nd experiment	ELISA (absorbance at 370 nm in relation to 2D8), mean	Binder
1.3 relative to 2D8	1.6 relative to 2D8	1.4 relative to 2D8	B5
2.2 relative to 2D8	2.1 relative to 2D8	2.2 relative to 2D8	B7
2.1 relative to 2D8	2.2 relative to 2D8	2.2 relative to 2D8	B8
3 relative to 2D8	2.2 relative to 2D8	2.6 relative to 2D8	B9
1.5 relative to 2D8	2.6 relative to 2D8	2.1 relative to 2D8	B10
3.1 relative to 2D8	3.4 relative to 2D8	3.3 relative to 2D8	B11
1.4 relative to 2D8	1.8 relative to 2D8	1.6 relative to 2D8	B13
1.5 relative to 2D8	1.8 relative to 2D8	1.7 relative to 2D8	B16
